Results published in US20240254227A1 (Alector, published 2024).

T1: human CD300LB-Fc (human)
T1 construct: hIgG1-Fc fusion; the entry is the whole fusion chain
T1 chain: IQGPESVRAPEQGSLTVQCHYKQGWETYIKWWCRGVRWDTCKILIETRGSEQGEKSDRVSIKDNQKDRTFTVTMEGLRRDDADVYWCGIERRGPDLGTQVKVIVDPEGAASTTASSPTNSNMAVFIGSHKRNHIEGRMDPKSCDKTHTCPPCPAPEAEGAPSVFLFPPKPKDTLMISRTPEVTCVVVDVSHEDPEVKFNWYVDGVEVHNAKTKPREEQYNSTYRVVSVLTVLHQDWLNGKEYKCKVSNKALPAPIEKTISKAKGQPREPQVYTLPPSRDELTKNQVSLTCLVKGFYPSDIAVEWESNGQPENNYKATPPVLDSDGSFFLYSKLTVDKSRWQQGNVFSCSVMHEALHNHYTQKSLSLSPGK

T2: human CD300C-Fc (human)
T2 construct: hIgG1-Fc fusion; the entry is the whole fusion chain
T2 chain: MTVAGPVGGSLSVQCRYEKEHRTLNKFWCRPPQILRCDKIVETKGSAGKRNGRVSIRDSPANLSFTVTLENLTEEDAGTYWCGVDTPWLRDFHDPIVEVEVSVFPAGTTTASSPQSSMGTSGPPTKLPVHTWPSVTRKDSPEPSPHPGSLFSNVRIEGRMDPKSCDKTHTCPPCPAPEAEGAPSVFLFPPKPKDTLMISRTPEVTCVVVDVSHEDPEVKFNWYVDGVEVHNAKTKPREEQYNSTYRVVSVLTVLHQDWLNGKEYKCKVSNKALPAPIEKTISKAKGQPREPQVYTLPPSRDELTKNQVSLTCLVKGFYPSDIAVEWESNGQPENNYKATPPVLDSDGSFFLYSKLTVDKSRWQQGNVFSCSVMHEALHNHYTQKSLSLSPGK

T3: human CD300F-Fc (human)
T3 construct: hIgG1-Fc fusion; the entry is the whole fusion chain
T3 chain: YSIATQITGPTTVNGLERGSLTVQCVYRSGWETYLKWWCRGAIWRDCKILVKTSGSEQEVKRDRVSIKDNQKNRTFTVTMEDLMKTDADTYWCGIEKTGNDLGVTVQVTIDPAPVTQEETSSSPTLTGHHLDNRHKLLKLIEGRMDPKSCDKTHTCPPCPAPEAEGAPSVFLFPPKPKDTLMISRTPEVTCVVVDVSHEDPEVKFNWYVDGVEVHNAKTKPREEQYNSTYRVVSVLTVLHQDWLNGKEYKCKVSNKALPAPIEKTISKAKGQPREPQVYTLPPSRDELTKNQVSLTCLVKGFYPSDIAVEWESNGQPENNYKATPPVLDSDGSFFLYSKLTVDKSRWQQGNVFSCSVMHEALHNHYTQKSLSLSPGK

T4: human CD300LB on primary human monocytes (human, UniProt A8K4G0 18-201)
T4 construct: Endogenous protein on primary cells; that the target is CD300LB is inferred from the antibodies being anti-CD300LB antibodies; also called Monocyte donor 1281; Monocyte donor 1282
T4 sequence: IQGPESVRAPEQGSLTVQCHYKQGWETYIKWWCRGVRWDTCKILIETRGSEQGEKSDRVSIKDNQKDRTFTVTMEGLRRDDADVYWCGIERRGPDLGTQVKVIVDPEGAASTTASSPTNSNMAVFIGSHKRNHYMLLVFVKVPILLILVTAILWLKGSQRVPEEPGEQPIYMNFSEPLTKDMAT

T5: human CD300LB on primary human macrophages (human, UniProt A8K4G0 18-201)
T5 sequence: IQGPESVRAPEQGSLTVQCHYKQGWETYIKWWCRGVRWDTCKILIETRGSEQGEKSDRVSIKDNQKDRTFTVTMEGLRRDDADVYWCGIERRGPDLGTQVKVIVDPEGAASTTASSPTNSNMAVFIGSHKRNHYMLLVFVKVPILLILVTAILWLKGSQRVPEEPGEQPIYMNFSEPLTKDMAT


Key:
human CD300LB-Fc = biological target: T1, human CD300LB-Fc; assay: SPR (Carterra LSA), antibody immobilised, Fc fusion at 300 or 600 nM
Protocol: (§1) Binding of mouse anti-CD300LB IgG1 antibodies of the present disclosure to human and murine CD300 orthologs were evaluated by surface plasmon resonance (SPR) using a Carterra LSA instrument (Carterra, Salt Lake City, UT). […] A HC200M sensor chip (Carterra) was activated using the single channel flow cell with a 7-minute injection of a 1:1:1 mixture of 100 mM MES pH 5.5, 100 mM sulfo-NHS, 400 mM EDC (all reconstituted in MES pH 5.5; 100 μL of each mixed in vial immediately before running assay). After switching to the multi-channel array flow cell, the antibodies were injected over the activated chip in a 96-spot array for 10 minutes. The remaining unconjugated active groups on the chip were then blocked by injecting 1M Ethanolamine pH 8.5 (Carterra) for 7 minutes using the single channel flow cell. After priming with running buffer (HBS-TE, Carterra) with 0.5 mg/ml BSA (Sigma), the immobilized anti-CD300LB antibodies were tested for their ability to bind human and mouse recombinant CD300LB extracellular domains. Human CD300 family members and mouse CD300A were hIgG1-Fc fusions, while mouse CD300LB, mouse CD300C, mouse CD300D, and mouse CD300E were mouse IgG2a-Fc fusions (R&D Systems). Binding was assessed by injecting each analyte over the entire antibody array using the single channel flow cell. CD300 analytes were diluted to 300 nM or 600 nM in running buffer and injected in series without regeneration. Two or three buffer blanks were run between each mouse or human ortholog, respectively. Data were processed and analyzed using NextGenKIT high-throughput kinetics analysis software (Carterra).
(§2) Results of anti-CD300LB antibody binding to human CD300 family members is provided below in Table 7.

human CD300C-Fc = biological target: T2, human CD300C-Fc; assay: as above
Protocol: as §1, §2

human CD300F-Fc = biological target: T3, human CD300F-Fc; assay: as above
Protocol: as §1, §2

[1] = biological target: T4, human CD300LB on primary human monocytes; assay: flow cytometry, primary human monocytes donor 1284, 10 ug/mL antibody, isotype control subtracted
Protocol: (§3) Human monocytes from various donors were isolated from whole blood using RosetteSep Human Monocyte Enrichment Cocktail (Stemcell technologies) and Ficoll centrifugation per manufacturer protocols. After lysing red blood cells with ACK lysing buffer, monocytes were resuspended in complete media (RPMI, 10% FBS, Pen/Strep, L-glutamine, HEPES, non-essential amino acid, Sodium pyruvate). To obtain macrophages from these isolated monocytes, 100 ng/ml human M-CSF and 8% v/v human serum were added to the cells for 5-7 days. Cells were counted on the day of the experiment and plated at 100,000 cells per well in a round-bottom 96 well plate. Cells were incubated with TruStain Fc block and 10 μg/mL antibody for 1 hour on ice before washing with 250 μL ice cold PBS twice. Cells were then incubated with the appropriate APC-conjugated secondary antibodies for 20 minutes in the dark on ice. Finally, cells were washed twice with ice cold FACS buffer and then resuspended in 100 μL FACS buffer containing 1% propidium iodide. Samples were immediately analyzed using a BD FACSCanto flow cytometer. The gMFI was calculated using FlowJo software minus the gMFI of the appropriate isotype control.

[2] = biological target: T5, human CD300LB on primary human …; assay: flow cytometry, primary human macrophages donor 1275, 10 ug/mL antibody, isotype control subtracted
Protocol: as §3

Row | SPR binding (control subtracted) (human CD300LB-Fc) | SPR binding (control subtracted) (human CD300C-Fc) | SPR binding (control subtracted) (human CD300F-Fc) | gMFI [1] | gMFI [2] | Binder
1 | 21 | 0.425 | 0.87 | – | – | anti-CD300LB antibody CD-02 (antibody, V domains shown) VH: QVQLQQPGAELVRPGSSVKLSCQASGYTFTNYWMHWVRQRPIQGLEWIGNIDPSDSETHYNQKFKDRATLTVDKSSSTAYMQLSSLTSEDSAVYYCARSGVYDDEGGDYWGQGTTLTVSS VL: ENVLTQSPAIMSASPGEKVTMTCSASSSVSYIHWYQQKSSTSPKLWIYDTSKLASGVPGRFSGSGSGNSYSLTISSMETEDVATYYCFQGSGYPLTFGAGTKLELK
2 | 43 | 0.165 | 0.42 | – | – | anti-CD300LB antibody CD-03 (antibody, V domains shown) VH: EVQLQQSGPELVKPGASVKISCKASGYTFTDYYINWVRQSHGKSLECIGDINPNNGGTNYNQKFKGKATLTVDRSSNTAYMEFRSLTFDDSALYYCAAEGAYWGQGTLVTVSA VL: not shown
3 | – | – | – | -189 gMFI | 2700 gMFI | anti-CD300LB antibody CD-07 (antibody, V domains shown) VH: QVQLVQSGAEVKKPGASVKVSCKASGYTFTNYRMHWVRQAPGQGLEWMGWINPNSGGTIYAQKFQGRVTMTRDTSTSTVYMELSSLRSEDTAVYYCARDLDYWGQGTLVTVSS VL: DIQMTQSPSSLSASVGDRVTITCQASQDISNYLNWYQQKPGKAPKLLIYGASSLQSGVPSRFSGSGSGTDFTLTISSLQPEDFATYYCQQSYSTPWTFGPGTKVEIK
4 | – | – | – | 1010 gMFI | 26900 gMFI | anti-CD300LB antibody CD-06 (antibody, V domains shown) VH: QVQLVQSGAEVKKPGASVKVSCKASGYTFTTYAVHWVRQAPGQGLEWMGIVNPNSGGTNYAQKFQGRVTMTRDTSTSTVYMELSSLRSEDTAVYYCARDIVPMNNFYNYYYGMDVWGQGTTVTVSS VL: DIQMTQSPSSLSASVGDRVTITCRASQSISSYLNWYQQKPGKAPKLLIYATSTLQSGVPSRFSGSGSGTDFTLTISSLQPEDFATYYCQQSYRIPYTFGQGTKVEIK
5 | 51 | 0.06 | 0.045 | 166 gMFI | 61000 gMFI | anti-CD300LB antibody CD-05 (antibody, V domains shown) VH: QVQLVQSGAEVKKPGASVKVSCKASGYTFSRYYINWVRQAPGQGLEWMGWINPNSGGTNYAQKFQGRVTMTRDTSTSTVYMELSSLRSEDTAVYYCTTDQLRFGKTGPYYGMDVWGQGTTVTVSS VL: DIQMTQSPSSLSASVGDRVTITCRASQNIGTYLNWYQQKPGKAPKLLIYAASSLQSGVPSRFSGSGSGTDFTLTISSLQPEDFATYYCQQSYSDTLTFGGGTKVEIK
6 | 3.71 | 0.805 | 0.075 | – | – | anti-CD300LB antibody CD-01 (antibody, V domains shown) VH: RVQLQQSGAELVRPGASVTLSCKASGFTFTDFEMHWVKKTPVHGLEWIGAIDPESGNTAYNQKFRGKATLTADKSSSTAYMELRYLTSEDSAVYYCTPLISGADYWGQGTTLTVSS VL: DVVMTQSPLSLPVSLGDQASISCRSSQSLVHSDGNTYLYWYLQKPGQSPKLLIYKVSNRFSGVPDRFSGSGSGTDFTFKISRVGAEDLGVYFCSQSTHVPWTFGGGTKLEII
